Key:
SARS-CoV-2野生型 S蛋白 (假病毒) = SARS-CoV-2野生型 S蛋白 (假病毒) (SARS-CoV-2 野生型, UniProt P0DTC2 14-1273); assay: cell-based or functional assay
[1] = molecular target: 新型冠状病毒野生型RBD蛋白 (RBD-WT, cat#Z03479, Gensript) (SARS-CoV-2 野生型, UniProt P0DTC2 319-541); assay: BIAcore SPR, RBD immobilised on CM5 chip, antibody as analyte, 25℃, 1:1 model

Binder	假病毒中和 IC50 (SARS-CoV-2野生型 S蛋白 (假病毒)) [µg/mL]	Kd [1] [nM]
抗体Amb1 (antibody, V domains shown) VH: EVQLLESGTEVKKPGSSVKVSCKASGGTFSSYAISWVRQAPGQGLEWMGGIIPILGIANYAQKFQGRVTITADKSTSTAYMELSSLRSEDTAVYYCARERGYSGYGAAYYFDYWGQGTLVTVSS VL: QSVLTQAPSVSGAPGQSVTISCTGSSSNIGAGYDVHWYQQLPGTAPKLLIYGNNNRPSGVPDRFSGSKSGTSASLAITGLQAEDEADYYCQSYDSSLSKGVFGGGTKLTVL	0.13	151
抗体Amb2 (antibody, V domains shown) VH: EVQLLESGPGLVKPSETLSLTCTVSGGSISNSSYYWGWIRQPPGKGLEWIGSIYYSGSTYYNPSLKSRVTISVDTSKNQFSLKLSSVTAADTGVYYCASWLYGDPISFDYWGQGTLVTVSS VL: not shown	0.064	164

From CN115043938A (DUAN LIANGWEI; JIANG ZHIHUA; WANG HUI, dated 2022)
